Read-outs that look alike come from different tables or passages of the source.
T1: human Trop-2 (His) (human, UniProt P09758)
T1 chain: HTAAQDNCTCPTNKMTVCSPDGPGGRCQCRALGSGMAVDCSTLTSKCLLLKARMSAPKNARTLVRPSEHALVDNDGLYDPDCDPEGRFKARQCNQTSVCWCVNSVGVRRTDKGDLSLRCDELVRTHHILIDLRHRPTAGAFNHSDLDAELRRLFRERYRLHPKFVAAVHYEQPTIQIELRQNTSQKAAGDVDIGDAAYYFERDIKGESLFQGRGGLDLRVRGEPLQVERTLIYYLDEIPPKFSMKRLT

T2: human Trop-2 on MDA-MB-468 cells (human, UniProt P09758)
T2 chain: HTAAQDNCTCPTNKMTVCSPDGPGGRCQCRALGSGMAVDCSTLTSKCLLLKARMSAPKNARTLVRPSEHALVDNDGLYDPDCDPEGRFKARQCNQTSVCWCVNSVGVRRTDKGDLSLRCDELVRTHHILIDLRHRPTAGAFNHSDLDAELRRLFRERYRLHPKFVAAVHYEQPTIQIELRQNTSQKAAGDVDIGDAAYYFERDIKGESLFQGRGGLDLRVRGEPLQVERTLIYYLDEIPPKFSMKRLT


Tests used:
[1] = target: T1, human Trop-2 (His); test: ELISA
[2] = target: T1, human Trop-2 (His); test: SPR
[3] = target: T2, human Trop-2 on MDA-MB-468 cells; test: FACS
[4] = target: T1, human Trop-2 (His); test: SPR
[5] = target: T1, human Trop-2 (His); test: SPR
[6] = target: T1, human Trop-2 (His); test: SPR
[7] = target: T1, human Trop-2 (His); test: SPR
[8] = target: T3, hPD-L1(ECD)-His (human, UniProt Q9NZQ7); test: SPR
T3 sequence (Q9NZQ7 19-238): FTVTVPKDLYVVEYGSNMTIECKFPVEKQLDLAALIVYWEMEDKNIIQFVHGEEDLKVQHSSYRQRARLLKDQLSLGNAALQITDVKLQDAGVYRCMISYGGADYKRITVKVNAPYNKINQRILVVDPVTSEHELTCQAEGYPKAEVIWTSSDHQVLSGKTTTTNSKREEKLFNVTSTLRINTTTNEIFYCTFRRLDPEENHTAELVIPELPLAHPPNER

[9] = target: T3, hPD-L1(ECD)-His; test: SPR; remark: listed apart in the source
[10] = target: T3, hPD-L1(ECD)-His; test: SPR supernatant

Binder | EC50 [3] | Kd [4] | Kd [6] | other results
Trop-2-B-16 (antibody, V domains shown) VH: EVQVVESGGGLVQPGGSLRLSCTAPERIFSIYNMGWYRQAPGKEREWVAFLMEGGRIEYADSVKGRFTISRDNAKSTVYLQMNNLNAEDAAVYYCNAGGRSGYWGKGTLVTVSS |  |  |  | EC50 [1]: 0.0166 mg/L; Kd [2]: 5.21 nM
Trop-2-A-258hz5 (antibody, V domains shown) VH: QVQLVESGGGLVQPGGSLRLSCAASDRTFSEYNADWFRQAPGKEREFVAAITWSGKNTRYADSVKGRFTVSRDNSKNTVYLQMNSLRPADTAVYYCATDRWWAAGNWDGVDYWGQGTLVTVSS | 0.279 mg/L | 68.9 nM |  | 
Datopotamab (ALGA106B) (antibody, V domains shown) VH: QVQLVQSGAEVKKPGASVKVSCKASGYTFTTAGMQWVRQAPGQGLEWMGWINTHSGVPKYAEDFKGRVTISADTSTSTAYLQLSSLKSEDTAVYYCARSGFGSSYWYFDVWGQGTLVTVSS VL: DIQMTQSPSSLSASVGDRVTITCKASQDVSTAVAWYQQKPGKAPKLLIYSASYRYTGVPSRFSGSGSGTDFTLTISSLQPEDFAVYYCQQHYITPLTFGQGTKLEIKR | 0.827 mg/L | 28.3 nM | 22.5 nM | Kd [5]: 15.4 nM; EC50 [1]: 0.0507 mg/L; Kd [2]: 23.5 nM
ALGA105X Trop-2 arm (antibody, V domains shown) V domain 1: EVQVVESGGGLVQPGGSLRLSCATSGYIFSNSGMGWYRQAPGKQRELVAAISSGGTTHYADSVKGRFTISRDNSKNTVYLQMNSLRAEDTAVYYCNGDRYYSGTDVFGSWGQGTLVTVSS V domain 2: QVQLVQSGGGLVQPGGSLRLSCAASDRTFSEYNADWFRQAPGKEREFVAAITWSGKNTRYADSVKGRFTVSRDNSKNTVYLQMNSLRAEDTAVYYCATDRWWAAGNWDGVDYWGQGTLVTVSS |  |  | 3.43 nM | Kd [7]: 3.43 nM
Trop-2-A-258 (antibody, V domains shown) VH: QVQLVESGGGLVQAGGSLRLSCAASDRTFSEYNADWFRQAPGKEREFVAAITWSGKNTRYADSVKGRFTVSRDNAKNTVYLQMNSLKPEDTAVYYCATDRWWAAGNWDGVDYWGKGTLVTVSS | 0.34 mg/L | 64.6 nM |  | EC50 [1]: 0.00557 mg/L; Kd [2]: 59.2 nM
Trop-2-B-YC-82 (antibody, V domains shown) VH: EVQVVESGGGLVQPGGSLRLSCATSGYIFSNSGMGWYRQAPGKQRELVAAISSGGTTHYADSVKGRFTISRDNAKSTVYLQMNSLKPEDTAVYYCNGDRYYSGTDVFGSWGQGTQVTVSS |  |  |  | Kd [5]: 20.1 nM; Kd [2]: 20.1 nM
Trop-2-A-258hz7 (antibody, V domains shown) VH: QVQLVESGGGLVQPGGSLRLSCAASDRTFSEYNADWFRQAPGKEREFVAAITWSGKNTRYADSVKGRFTVSRDNSKNTVYLQMNSLRAEDTAVYYCATDRWWAAGNWDGVDYWGQGTLVTVSS | 0.227 mg/L | 74.7 nM |  | 
ALGA105X-ADC Trop-2 arm (antibody, V domains shown, exatecan drug-linker conjugate; full fusion SEQ69) V domain 1: EVQVVESGGGLVQPGGSLRLSCATSGYIFSNSGMGWYRQAPGKQRELVAAISSGGTTHYADSVKGRFTISRDNSKNTVYLQMNSLRAEDTAVYYCNGDRYYSGTDVFGSWGQGTLVTVSS V domain 2: QVQLVQSGGGLVQPGGSLRLSCAASDRTFSEYNADWFRQAPGKEREFVAAITWSGKNTRYADSVKGRFTVSRDNSKNTVYLQMNSLRAEDTAVYYCATDRWWAAGNWDGVDYWGQGTLVTVSS |  |  |  | Kd [7]: 3.33 nM
ALGA105S-ADC PD-L1 arm (antibody, V domains shown, exatecan drug-linker conjugate; full fusion SEQ67:SEQ68) VH: EVQLVQSGAEVKKPGATVKISCKVSGFNIEDTYIYWVQQAPGKGLEWMGWIDPANYNTKYDPRFQDRVTITVDTSTDTAYMELSSLRSEDTAVYYCARGLRLLMDYWGQGTTVTVSS VL: DIQLTQSPSFLSASVGDRVTITCKASQNVHTSLAWYQQKPGKSPKLLIYLASNRHTGVPSRFSGSGSGTEFTLTISSLQPEDFATYYCLQHWNYPLTFGQGTKLEIKR |  |  |  | Kd [8]: 0.764 nM
Sacituzumab (ALGA106A) (antibody, V domains shown) VH: QVQLQQSGSELKKPGASVKVSCKASGYTFTNYGMNWVKQAPGQGLKWMGWINTYTGEPTYTDDFKGRFAFSLDTSVSTAYLQISSLKADDTAVYFCARGGFGSSYWYFDVWGQGSLVTVSS VL: DIQLTQSPSSLSASVGDRVSITCKASQDVSIAVAWYQQKPGKAPKLLIYSASYRYTGVPDRFSGSGSGTDFTLTISSLQPEDFAVYYCQQHYITPLTFGAGTKVEIKR | 0.151 mg/L |  |  | Kd [5]: 0.859 nM; EC50 [1]: 0.027 mg/L; Kd [2]: 0.859 nM
ALGA105M Trop-2 arm (antibody, V domains shown) V domain 1: EVQVVESGGGLVQPGGSLRLSCATSGYIFSNSGMGWYRQAPGKQRELVAAISSGGTTHYADSVKGRFTISRDNSKNTVYLQMNSLRAEDTAVYYCNGDRYYSGTDVFGSWGQGTLVTVSS V domain 2: EVQVVESGGGLVQPGGSLRLSCATSGYIFSNSGMGWYRQAPGKQRELVAAISSGGTTHYADSVKGRFTISRDNSKNTVYLQMNSLRAEDTAVYYCNGDRYYSGTDVFGSWGQGTLVTVSS |  |  | 99.4 nM | 
Trop-2-A-258hz2 (antibody, V domains shown) VH: QVQLVQSGGGLVQPGGSLRLSCAASDRTFSEYNADWFRQAPGKEREFVAAITWSGKNTRYADSVKGRFTVSRDNSKNTVYLQMNSLRAEDTAVYYCATDRWWAAGNWDGVDYWGQGTLVTVSS | 0.176 mg/L | 75.5 nM |  | 
PD-L1-1.168.15-z11-uIgG1K (antibody) chain 1: not shown chain 2: DIQMTQSPSFLSASVGDRVTITCKASQNVHTSLAWYQQKPGKSPKALIYLASNRHTGVPSRFSGSGSGTEFTLTISSLQPEDFATYFCLQHWNYPLTFGQGTKLEIKRTVAAPSVFIFPPSDEQLKSGTASVVCLLNNFYPREAKVQWKVDNALQSGNSQESVTEQDSKDSTYSLSSTLTLSKADYEKHKVYACEVTHQGLSSPVTKSFNRGEC |  |  |  | Kd [9]: 0.62 nM; Kd [10]: 0.863 nM
ALGA105O Trop-2 arm (antibody, V domains shown) V domain 1: EVQVVESGGGLVQPGGSLRLSCATSGYIFSNSGMGWYRQAPGKQRELVAAISSGGTTHYADSVKGRFTISRDNSKNTVYLQMNSLRAEDTAVYYCNGDRYYSGTDVFGSWGQGTLVTVSS V domain 2: QVQLVESGGGLVQAGGSLRLSCAASDRTFSEYNADWFRQAPGKEREFVAAITWSGKNTRYADSVKGRFTVSRDNAKNTVYLQMNSLKPEDTAVYYCATDRWWAAGNWDGVDYWGKGTLVTVSS |  |  | 2.22 nM | 
ALGA105N Trop-2 arm (antibody, V domains shown) V domain 1: EVQVVESGGGLVQPGGSLRLSCATSGYIFSNSGMGWYRQAPGKQRELVAAISSGGTTHYADSVKGRFTISRDNSKNTVYLQMNSLRAEDTAVYYCNGDRYYSGTDVFGSWGQGTLVTVSS V domain 2: EVQVVESGGGLVQPGGSLRLSCTAPERIFSIYNMGWYRQAPGKEREWVAFLMEGGRIEYADSVKGRFTISRDNAKSTVYLQMNNLNAEDAAVYYCNAGGRSGYWGKGTLVTVSS |  |  | 0.668 nM | 
ALGA105S Trop-2 arm (antibody, V domains shown) V domain 1: EVQVVESGGGLVQPGGSLRLSCATSGYIFSNSGMGWYRQAPGKQRELVAAISSGGTTHYADSVKGRFTISRDNSKNTVYLQMNSLRAEDTAVYYCNGDRYYSGTDVFGSWGQGTLVTVSS V domain 2: QVQLVQSGGGLVQPGGSLRLSCAASDRTFSEYNADWFRQAPGKEREFVAAITWSGKNTRYADSVKGRFTVSRDNSKNTVYLQMNSLRAEDTAVYYCATDRWWAAGNWDGVDYWGQGTLVTVSS |  |  | 2.44 nM | Kd [7]: 2.75 nM
ALGA105T Trop-2 arm (antibody, V domains shown) V domain 1: QVQLVQSGGGLVQPGGSLRLSCAASDRTFSEYNADWFRQAPGKEREFVAAITWSGKNTRYADSVKGRFTVSRDNSKNTVYLQMNSLRAEDTAVYYCATDRWWAAGNWDGVDYWGQGTLVTVSS V domain 2: EVQVVESGGGLVQPGGSLRLSCATSGYIFSNSGMGWYRQAPGKQRELVAAISSGGTTHYADSVKGRFTISRDNSKNTVYLQMNSLRAEDTAVYYCNGDRYYSGTDVFGSWGQGTLVTVSS |  |  | 2.76 nM | 
ALGA105S-ADC Trop-2 arm (antibody, V domains shown, exatecan drug-linker conjugate; full fusion SEQ67) V domain 1: EVQVVESGGGLVQPGGSLRLSCATSGYIFSNSGMGWYRQAPGKQRELVAAISSGGTTHYADSVKGRFTISRDNSKNTVYLQMNSLRAEDTAVYYCNGDRYYSGTDVFGSWGQGTLVTVSS V domain 2: QVQLVQSGGGLVQPGGSLRLSCAASDRTFSEYNADWFRQAPGKEREFVAAITWSGKNTRYADSVKGRFTVSRDNSKNTVYLQMNSLRAEDTAVYYCATDRWWAAGNWDGVDYWGQGTLVTVSS |  |  |  | Kd [7]: 2.88 nM
Trop-2-A-258hz3 (antibody, V domains shown) VH: QVQLVESGGGLVQPGGSLRLSCAASDRTFSEYNADWFRQAPGKEREFVAAITWSGKNTRYADSVKGRFTVSRDNSKNTVYLQMNSLRAEDTAVYYCATDRWWAAGNWSGVDFWGQGTLVTVSS | 8.7 mg/L | 99.2 nM |  | 
ALGA105X-ADC PD-L1 arm (antibody, V domains shown, exatecan drug-linker conjugate; full fusion SEQ69:SEQ70) VH: EVQLVQSGAEVKKPGATVKISCKVSGFNIEDTYIYWVQQAPGKGLEWMGWIDPANYNTKYDPRFQDRVTITVDTSTDTAYMELSSLRSEDTAVYYCARGLRLLMDYWGQGTTVTVSS VL: DIQLTQSPSFLSASVGDRVTITCKASQNVHTSLAWYQQKPGKSPKLLIYLASNRHTGVPSRFSGSGSGTEFTLTISSLQPEDFATYYCLQHWNYPLTFGQGTKLEIKR |  |  |  | Kd [8]: 0.652 nM
